Patent publication US20050095231A1

Target: artificial receptor (AR) on 293/6H cells: anti-5His single chain antibody fused with the transmembrane domain of the PDGF receptor
Assay: cell-based or functional assay

Work on “fiber-fibritin-6His chimera (FF/6H), as carried by Ad5LucFF/6H virions” yielded an Ad5LucFF/6H-expressed luciferase activities in 293/6H cells expressing AR compared to parental 293 cells (orders of magnitude) of 2.
